Patent US20250123280A1, “LABEL-FREE DETECTION OF PROTEASE ACTIVITY” (OREGON HEALTH & SCIENCE UNIVERSITY, priority 2021, published 2025)
Ends that are not written are not given here. Peptide text beside a SMILES is read from it. * marks the point of attachment. Fmoc = O=C(OCC1c2ccccc2-c2ccccc21)*

Experiments:
[1] = Solubility in aqueous solutions; assay type: physicochemical
[2] = ThT fluorescence of self-assembled peptide 2 in assay buffer; conditions: peptide 2 0.58 mg/mL in assay buffer, ThT 90 μM
Procedure: β-sheet rich nanoplatelet formation by self-assembly of peptide 2. […] Nano Lett. 2017, 17 (9), 5546-5554). […] ThT (90 μM) addition to this solution yielded a bright fluorescence with an emission maximum of about 490 nm (see FIG. 2).

cathepsin B = target: T1, cathepsin B (Homo sapiens, UniProt P07858); experiment: Cathepsin B assay with peptide 3 and ThT; assay type: biochemical; conditions: after treatment with cathepsin B (1000 ng/mL vs 0 ng/mL)
T1 construct: purchased Bio-Techne
Procedure: Peptide 3 was prepared as a 2.0 mg/mL solution in 1× phosphate buffered saline, pH 7.4 and 5% DMSO. In a typical assay experiment, 50 μL of the peptide 3 solution was mixed 50 μL of 50 mM MES buffer, pH 5 with cathepsin B at a concentration between about 0 and about 1000 ng/mL in a 96-well microplate and the plate was incubated at 37° C. for 2 hours. Then, 10 μL of 0.1 μm-filtered 1 mM aqueous ThT solution was added to each well and mixed for a final concentration of 90 μM ThT. After 15-30 min incubation at room temperature, the ThT fluorescence was measured at room temperature using a Tecan Spark 20M microplate reader.

[3] = target: T2, Peptide 1 (Fmoc-Phe-Lys-Phe-Glu-Ala-Ala-Asn-Gly-Glu-Glu-Gly-Ser-Gly-Glu-Glu)
T2 chain: FKFEAANGEEGSGEE

[4] = target: the molecule itself; experiment: circular dichroism of peptide 1 alone (self-assembly)
[5] = target: the molecule itself; experiment: self-assembly of peptide 2 in assay buffer; centrifugation, TEM, AFM
Procedure: Transmission electron microscopy (TEM) and atomic force microscopy (AFM) imaging. […] After incubating at 37° C. for 2.0 hours, the formed aggregates were collected by centrifugation and resuspended in ultrapure water. […] TEM images were taken using a Tecnai microscope (FEI). To prepare TEM samples, 5 μL of solutions were placed on carbon film 200 copper mesh TEM grids. Samples were incubated on TEM grids for about 5 minutes and bloated and air dried. Uranyl acetate was prepared in distilled water at 2% w/v and filtered with a 0.1 μm syringe filter before each use. A 20 μl droplet of this solution was placed on Parafilm and the TEM grid was floated on it for 7 minutes. Excess uranyl acetate was blotted using Whatman paper, and the sample is left to dry at room temperature.
The morphology of these structures was investigated using transmission electron microscopy (TEM) and atomic force microscopy (AFM). […] AFM experiments were performed to further analyze the morphology of self-assembled nano-platelets.

In the case of `C[C@H](NC(=O)[C@H](C)NC(=O)[C@H](CCC(=O)O)NC(=O)[C@H](Cc1ccccc1)NC(=O)[C@H](CCCCN)NC(=O)[C@H](Cc1ccccc1)NC(=O)OCC1c2ccccc2-c2ccccc21)C(=O)N[C@@H](CC(N)=O)C(=O)O` [peptide 2, Fmoc-FKFEAAN] (Fmoc-FKFEAAN-OH), the “solubility in aqueous solutions” value [1] is reported as “not soluble in aqueous solutions” and the “enhancement in the ThT fluorescence intensity” value [2] is reported as 45 fold.

In the case of “Fmoc-FKFELAGGAGEEGSGEEE [peptide 3, cathepsin B substrate motif LAGGAG in place of the legumain substrate]”, the “increase in ThT fluorescence” value (cathepsin B) is reported as at most 72 fold.

B1: Recombinant mouse legumain (protein)
chain: VPVGVDDPEDGGKHWVVIVAGSNGWYNYRHQADACHAYQIIHRNGIPDEQIIVMMYDDIANSEENPTPGVVINRPNGTDVYKGVLKDYTGEDVTPENFLAVLRGDAEAVKGKGSGKVLKSGPRDHVFIYFTDHGATGILVFPNDDLHVKDLNKTIRYMYEHKMYQKMVFYIEACESGSMMNHLPDDINVYATTAANPKESSYACYYDEERGTYLGDWYSVNWMEDSDVEDLTKETLHKQYHLVKSHTNTSHVMQYGNKSISTMKVMQFQGMKHRASSPISLPPVTHLDLTPSPDVPLTILKRKLLRTNDVKESQNLIGQIQQFLDARHVIEKSVHKIVSLLAGFGETAERHLSERTMLTAHDCYQEAVTHFRTHCFNWHSVTYEHALRYLYVLANLCEAPYPIDRIEMAMDKVCLSHY
In the case of B1, the “LC-MS, fraction of peptide 1 cleaved” value [3] is reported as “almost 30% of the peptide was cleaved by legumain”, the “ON/OFF ratio of the assay in albumin depleted 20% plasma” value [3] is reported as “improve the ON/OFF ratio of the assay to about 10” and the “ThT emission enhancement at 1 mg/mL peptide 1 (500 ng/mL legumain)” value [3] is reported as “a 28-fold enhancement in its emission was obtained at 1 mg/mL peptide concentration”. For the same molecule, the “ThT emission intensity enhancement at 1000 ng/mL legumain (1.0 mg/mL peptide 1, 2 h)” value [3] was “about 32 fold at 1000 ng/mL legumain concentration”, the “ThT emission intensity increase at peptide 1 below 0.25 mg/mL (500 ng/mL legumain)” value [3] was “minimal (1.3-1.4 fold)” and the “ThT fluorescence enhancement at 10.0 ng/mL legumain” value [3] was “a slight (about 1.3 fold) fluorescence enhancement was obtained at the legumain concentration of 10.0 ng/mL”. The “ThT fluorescence enhancement at 25.0 ng/mL legumain” value [3] was “an easily detectable (about 3-fold) fluorescence enhancement was detected at 25.0 ng/mL”, the “ThT fluorescence enhancement in 10% plasma (1000 ng/mL legumain, 25 µM ThT)” value [3] was “a fluorescence enhancement of about 20 fold was obtained in 10% plasma at the legumain concentration of 1000 ng/mL” and the “ThT fluorescence enhancement in 20% human plasma (1000 ng/mL legumain, 90 µM ThT)” value [3] was “a detectable fluorescence enhancement (about 2.5 fold)”. The “ThT fluorescence intensity at 24 hours relative to 2 hours (1000 ng/mL legumain)” value [3] was “at 24 hours, the fluorescence intensity was about 2.5 higher compared with the intensity at two hours”, the “limit of detection (LOD) of legumain in the peptide 1 / ThT assay” value [3] was “about 12 ng/mL (0.21 nM)” and the “limit of quantification (LOQ) of legumain in the peptide 1 / ThT assay” value [3] was “about 25 ng/mL (0.45 nM)”. The “minimum detectable legumain concentration in 10% plasma” value [3] was “a minimum detectable concentration between 50 ng/mL to 200 ng/mL”.

Fmoc-FKFEAANGEEGSGEE (also called protein 1; the probe) [Peptide 1 (Fmoc-Phe-Lys-Phe-Glu-Ala-Ala-Asn-Gly-Glu-Glu-Gly-Ser-Gly-Glu-Glu)]: no binding (tested: 0.333 mg/mL) [4].

B2: Peptide 2 (Fmoc-FKFEAAN) (peptide)
peptide: Fmoc-FKFEAAN
notes: Synthetic peptide bought from GenScript (1048.2 g/mol); It is also the product of hydrolysis of peptide 1 by legumain; It self-assembles into many-copy nanoplatelets; also called protein 2; self-assembly precursor
B2: binds [5].
